Substitutions are numbered along the chain they refer to.
B1: 10B10-TCB (bispecific antibody, human IgG1, kappa, L234A L235A)
light 1: DIQLTQSPHSLSASLGETVSIECLASEGISNYLAWFHQKPGKSPQLLIYYASSLQDGVPSRFSGSGSGTQYSLKISNMQPEDEGVYYCQQGYKYPLTFGSGTKLEIKRTVAAPSVFIFPPSDRKLKSGTASVVCLLNNFYPREAKVQWKVDNALQSGNSQESVTEQDSKDSTYSLSSTLTLSKADYEKHKVYACEVTHQGLSSPVTKSFNRGEC
light 2: EVQLLESGGGLVQPGGSLRLSCAASGFTFSTYAMNWVRQAPGKGLEWVSRIRSKYNNYATYYADSVKGRFTISRDDSKNTLYLQMNSLRAEDTAVYYCVRHGNFGNSYVSWFAYWGQGTLVTVSSASVAAPSVFIFPPSDEQLKSGTASVVCLLNNFYPREAKVQWKVDNALQSGNSQESVTEQDSKDSTYSLSSTLTLSKADYEKHKVYACEVTHQGLSSPVTKSFNRGEC
heavy 1: EVQLVESGGGLVQPGRSMKLSCAASGFTFTNFYMAWVRQAPTKALEWVASINTGGGYTYYRDSVKGRFTVSRDNTRSTLYLQMDSLRSEETATYYCARHLTYYGRYYYFDYWGQGVMVTVSSASTKGPSVFPLAPSSKSTSGGTAALGCLVEDYFPEPVTVSWNSGALTSGVHTFPAVLQSSGLYSLSSVVTVPSSSLGTQTYICNVNHKPSNTKVDEKVEPKSCDKTHTCPPCPAPEAAGGPSVFLFPPKPKDTLMISRTPEVTCVVVDVSHEDPEVKFNWYVDGVEVHNAKTKPREEQYNSTYRVVSVLTVLHQDWLNGKEYKCKVSNKALGAPIEKTISKAKGQPREPQVCTLPPSRDELTKNQVSLSCAVKGFYPSDIAVEWESNGQPENNYKTTPPVLDSDGSFFLVSKLTVDKSRWQQGNVFSCSVMHEALHNHYTQKSLSLSPGK
heavy 2: not shown
B2: B72-TCB (bispecific antibody, human IgG1, kappa, L234A L235A)
heavy 1: not shown
light 1: B1 light 2 with L5V, S30N, S49A, D64A, T80S, R89K, A90T, V99A
heavy 2: QVQLVQSGAEVKKPGASVKVSCKASGYSFTGYTMNWVRQAPGQGLEWMGLINPYNSDTNYAQKLQGRVTMTTDTSTSTAYMELRSLRSDDTAVYYCARVALRVALDYWGQGTLVTVSSASTKGPSVFPLAPSSKSTSGGTAALGCLVEDYFPEPVTVSWNSGALTSGVHTFPAVLQSSGLYSLSSVVTVPSSSLGTQTYICNVNHKPSNTKVDEKVEPKSCDKTHTCPPCPAPEAAGGPSVFLFPPKPKDTLMISRTPEVTCVVVDVSHEDPEVKFNWYVDGVEVHNAKTKPREEQYNSTYRVVSVLTVLHQDWLNGKEYKCKVSNKALGAPIEKTISKAKGQPREPQVCTLPPSRDELTKNQVSLSCAVKGFYPSDIAVEWESNGQPENNYKTTPPVLDSDGSFFLVSKLTVDKSRWQQGNVFSCSVMHEALHNHYTQKSLSLSPGK
light 2: DIQMTQSPSSLSASVGDRVTITCKASQNVATHVGWYQQKPGKAPKRLIYSASYRYSGVPSRFSGSGSGTEFTLTISNLQPEDFATYYCQQYNRYPYTFGQGTKLEIKRTVAAPSVFIFPPSDRKLKSGTASVVCLLNNFYPREAKVQWKVDNALQSGNSQESVTEQDSKDSTYSLSSTLTLSKADYEKHKVYACEVTHQGLSSPVTKSFNRGEC
B3: P1AE5706 (antibody, V domains shown)
VH: ELQLEQSGGGLVQPGGSLTLSCAASGFTFSKYAMAWVRQAPTKGLEWVASISTGGVNTYYRDSVKARFTISRDNAKNTQYLQMDSLRSEDTATYYCATHTGDYFDYWGQGVMVTVSS
VL: DIVLTQSPALAVSPGQRATISCRASQSVSISGINLMNWYQQKPGQQPKLLIYHASILASGIPTRFSGSGSGTDFTLTIDPVQADDIATYYCQQTRESPLTFGSGTNLEIK
B4: P1AE5707 (antibody, V domains shown)
VH: EVQLLESGGGLVQPGGSLRLSCAASGFTFSKYAMAWVRQAPGKGLEWVASISTGGVNTYYRDSVKARFTISRDNSKNTLYLQMNSLRAEDTAVYYCATHTGDYFDYWGQGTMVTVSS
VL: DIVMTQSPDSLAVSLGERATINCRASQSVSISGINLMNWYQQKPGQQPKLLIYHASILASGVPDRFSGSGSGTDFTLTISSLQAEDVAVYYCQQTRESPLTFGQGTRLEIK
B5: P1AE5709 (antibody, V domains shown)
VH: B4 VH
VL: EIVLTQSPGTLSLSPGERATLSCRASQSVSISGINLMNWYQQKPGQQPRLLIYHASILASGIPDRFSGSGSGTDFTLTISRLEPEDFAVYYCQQTRESPLTFGQGTRLEIK
B6: P1AE5727 (antibody, V domains shown)
VH: B4 VH with V2L, R61A, A66G, S75A
VL: B4 VL with R24K, A25S
B7: P1AE5717 (antibody, V domains shown)
VH: B4 VH with V2L, S75A
VL: B5 VL with R49K
B8: P1AE5726 (antibody, V domains shown)
VH: B4 VH with V2L, R61A, A66G, S75A
VL: B4 VL
B9: P1AE5715 (antibody, V domains shown)
VH: B4 VH with V2L, S75A
VL: B4 VL with R24K, A25S
B10: P1AE5713 (antibody, V domains shown)
VH: B4 VH
VL: DIQMTQSPSSLSASVGDRVTITCRASQSVSISGINLMNWYQQKPGQQPKLLIYHASILASGVPSRFSGSGSGTDFTLTISSLQPEDFATYYCQQTRESPLTFGQGTRLEIK
B11: P1AE5708 (antibody, V domains shown)
VH: B4 VH
VL: B4 VL with R24K, A25S
B12: P1AE5710 (antibody, V domains shown)
VH: B4 VH
VL: B5 VL with R49K
B13: P1AE5721 (antibody, V domains shown)
VH: B4 VH with R61A, A66G
VL: B4 VL with R24K, A25S
B14: P1AE5714 (antibody, V domains shown)
VH: B4 VH with V2L, S75A
VL: B4 VL
B15: P1AE5716 (antibody, V domains shown)
VH: B4 VH with V2L, S75A
VL: B5 VL
B16: P1AE5720 (antibody, V domains shown)
VH: B4 VH with R61A, A66G
VL: B4 VL
B17: P1AE5733 (antibody, V domains shown)
VH: EVQLVESGGGLVQPGRSLKLSCAASGFSFSNYGMAWVRQAATKGLEWVASISTGGGNTYYRDSVKGRFIVSRDNAKNTQYLQMDSLRSEDTATYYCTRHDRGGLYWGQGVMVTVSS
VL: DIVMTQAPLSVSVTPGESASISCRSSKSLLHSNGITYVYWYFQKPGKSPQVLIYRMSNLASGVPDRFSGSGSETDFTLKISRVEAEDVGIYHCGQLLENPYTFGAGTELELK
B18: P1AE5753 (antibody, V domains shown)
VH: EVQLVESGGGVVQPGRSLRLSCAASGFSFSNYGMAWVRQAPGKGLEWVASISTGGGNTYYADSVKGRFTISRDNAKNTLYLQMNSLRAEDTAVYYCTRHDRGGLYWGQGTMVTVSS
VL: DIVMTQSPDSLAVSLGERATINCKSSKSLLHSNGITYVYWYQQKPGQPPKLLIYRMSNLASGVPDRFSGSGSGTDFTLTISSLQAEDVAVYHCGQLLENPYTFGQGTKLEIK
B19: P1AE5743 (antibody, V domains shown)
VH: B18 VH with A61R
VL: EIVLTQSPGTLSLSPGERATLSCRASKSLLHSNGITYVYWYQQKPGQAPRLLIYRMSNLASGIPDRFSGSGSGTDFTLTISRLEPEDFAVYHCGQLLENPYTFGQGTKLEIK
B20: P1AE5759 (antibody, V domains shown)
VH: B18 VH with V11L, R16G, A61R
VL: B19 VL
B21: P1AE5754 (antibody, V domains shown)
VH: B18 VH
VL: B19 VL
B22: P1AE5758 (antibody, V domains shown)
VH: B18 VH with V11L, R16G, A61R
VL: B18 VL
B23: P1AE5749 (antibody, V domains shown)
VH: B18 VH with E1Q, A75S
VL: B19 VL
B24: P1AE5763 (antibody, V domains shown)
VH: B18 VH with V11L, R16G
VL: B18 VL
B25: P1AE5738 (antibody, V domains shown)
VH: B18 VH with E1Q, A61R, A75S
VL: B19 VL
B26: P1AE5764 (antibody, V domains shown)
VH: B18 VH with V11L, R16G
VL: B19 VL

These binders were tested against T1, human GPRC5D (human, UniProt Q9NZD1 1-345) (assay: cell-based or functional assay).
T1 sequence (Q9NZD1 whole entry): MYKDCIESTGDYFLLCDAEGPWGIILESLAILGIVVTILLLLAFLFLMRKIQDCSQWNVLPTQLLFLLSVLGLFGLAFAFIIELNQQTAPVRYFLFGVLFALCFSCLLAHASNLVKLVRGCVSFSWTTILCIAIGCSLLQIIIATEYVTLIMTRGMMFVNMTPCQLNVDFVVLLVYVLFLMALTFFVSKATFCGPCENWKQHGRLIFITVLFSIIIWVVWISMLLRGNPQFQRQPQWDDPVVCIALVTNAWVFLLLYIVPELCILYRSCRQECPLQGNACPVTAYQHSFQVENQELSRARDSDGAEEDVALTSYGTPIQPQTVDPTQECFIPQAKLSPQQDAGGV

B1 and B2 are within 1.5-fold of each other in “EC50 of in vitro killing, AMO-1” value: 0.084 nM for the first, 0.109 nM for the second.

B1 and B2 are within 1.5-fold of each other in “EC50 of in vitro killing, EJM” value: 0.079 nM for the first, 0.06 nM for the second.

Compared with B1, B2 is 1.7-fold higher in “EC50 of in vitro killing, L363” value: 0.034 nM for the first, 0.058 nM for the second.

B1 and B2 are within 1.5-fold of each other in “EC50 of in vitro killing, MOLP-2” value: 0.16 nM for the first, 0.124 nM for the second.

B1 and B2 are within 1.5-fold of each other in “EC50 of in vitro killing, NCI-H929” value: 0.056 nM for the first, 0.058 nM for the second.

Compared with B1, B2 is 6.1-fold higher in “EC50 of in vitro killing, OPM-2” value: 0.028 nM for the first, 0.171 nM for the second.

First: B1
Second: B2
The “EC50 of in vitro killing, RPMI” value of the first is 5-fold higher: 0.965 nM for the first, 0.193 nM for the second.

Target: T1, human GPRC5D
Experiment: cell-based or functional assay
Remark: another data set of the same source

First: B3
Second: B4
The “CAR-J2 EC50” value of the first is 11-fold lower: 0.0039 mg/L for the first, 0.0424 mg/L for the second.

Compared with B5, B6 is 9.4-fold lower in “CAR-J2 EC50” value: 0.0594 mg/L for the first, 0.0063 mg/L for the second.

Compared with B7, B8 is 2.1-fold lower in “CAR-J2 EC50” value: 0.0799 mg/L for the first, 0.0378 mg/L for the second.

Compared with B9, B10 is 21-fold higher in “CAR-J2 EC50” value: 0.0036 mg/L for the first, 0.0769 mg/L for the second.

First: B11
Second: B12
The “CAR-J2 EC50” value of the first is 130-fold higher: 0.456 mg/L for the first, 0.0035 mg/L for the second.

Going from B13 to B14, the “CAR-J2 EC50” value falls from 0.025 mg/L to 0.0055 mg/L (4.5-fold).

Compared with B15, B16 is 1.9-fold higher in “CAR-J2 EC50” value: 0.0033 mg/L for the first, 0.0063 mg/L for the second.

Target: T1, human GPRC5D
Experiment: cell-based or functional assay
Remark: another data set of the same source

First: B17
Second: B18
The “CAR-J2 EC50” value of the first is 11-fold lower: 0.00265 mg/L for the first, 0.03 mg/L for the second.

Going from B19 to B20, the “CAR-J2 EC50” value falls from 0.583 mg/L to 0.0157 mg/L (37-fold).

Going from B21 to B22, the “CAR-J2 EC50” value rises from 0.00889 mg/L to 0.19 mg/L (21-fold).

Compared with B23, B24 is 15-fold lower in “CAR-J2 EC50” value: 0.0826 mg/L for the first, 0.00547 mg/L for the second.

First: B25
Second: B26
The “CAR-J2 EC50” value of the first is 5.1-fold higher: 0.397 mg/L for the first, 0.0782 mg/L for the second.

From patent publication US20220411491A1 (Hoffmann-La Roche, published 2022)
